Test results from the RNAGym collection of RNA variant scans (doi:10.1073/pnas.2313332121).

B1: TPR t1 (parent)
chain: GACCAAUCUGCCCUCAGAGCUCGAGAACAUCUUCGGAUGCAGAGGAGGCAGGCUUCGGUGGCGCGAUAGCGCCAACGUCCUCAACCUCCAAUGCAUCCCACCACAUGAUGAUGCCUGAAGAGCCUUGGUUUUUUG

Variants of: B1
Assay: polymerase ribozyme fitness, log enrichment relative to wild type (log ratio); higher = more active; in vitro selection for triplet polymerase activity
Summary of the method: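 Each subunit of a heterodimeric triplet polymerase ribozyme was mutagenized into a library by PCR, transcribed, and subjected to one round of in vitro selection, run in triplicate. Libraries were annealed with a biotinylated primer, the partner subunit and triplets, incubated frozen at −7 °C, and extended constructs were gel-excised, captured on streptavidin beads and recovered by RT-PCR. Input and output libraries were sequenced on Illumina, keeping genotypes with ≥10 input reads and ≥1 read per output. Fitness is log base 2 of genotype enrichment divided by wild-type enrichment, from inverse-variance-weighted replicate averages.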

Variant | polymerase ribozyme fitness (log ratio)
C49U G61A C79U C97G | -5.31
A50C G60C U81G C86U G120C | -1.06
A50C G60C | -1.73
A50G C73U | 0.871
C49U C73A U81G | -2.45
C49G A50C C89U A91C | -2.86
C49A G93C G110U U132C | -2.27
C49G A68G G77U | -4.38
C49G U54C G63C C88G U106G | -5.67
C49G C72G G117A U125A | -4.73
A50C U92A | -3.05
A50G C73A C82U | -0.0319
C49G G63A U87A | -2.53
C49U A50U | -3.59
C49G C101G | -1.92
C49G G52A C53U A84G C85U C94U | -1.34
C49U C94U A111U | -5.05
C49G C62A C86A U96A | -3.84
C49G C82U C101G | -2.53
C49G U112G U129G | -0.483
C49U G127A | -1.64

Variant | polymerase ribozyme fitness (log ratio)
C49U U92G A121G | -1.61
A50C G52U | -2.09
C49G C70U G113U U125C U131G | -6.12
C49U A50G C70A | -4.55
C49U G61C | -1.88
C49U G61A | -0.0564
A50C C72U G135A | -1.52
C49G C64G G77U A83U G120U | -7.69
C49A G69A U106A | -2.86
C49G G93U C94A | -3.18
C49A G71A C101A C114A | -4.05
A50C A74U | -1.45
C49U C94U | -1.08
C49G C85U G117C | -3.67
C49U U130C | 0.0143
C49U U130A | -0.901
C49G C62U G113U | -4.48
C49U U129A | -1.47
A50G C76G | -0.226
C49U G77A | 0.352
C49U G77U | 0.0294

Variant | polymerase ribozyme fitness (log ratio)
C49U C89G | -1.74
C49G G110U | -2.51
C49U C80A U81C U106A U112A | -4.56
C49G C53A C94U U116G | -2.47
A50C C62A C98A A111U U112A | -6.58
A50G C64U C88G | -0.539
C49A G110C U112A | -5.99
C49A U78A U87G U130A | -1.01
C49U G117U | -2.67
C49G G77U U78A C85A | -1.63
C49A U59A G122A | -1.33
C49G C82U G93U G117U | -4.66
A50C G69C C104U | -1.11
A50C G71U A121C | 0.855
C49G C70G G77U U78A C85A | -2.95
A50C U55G G58C G61C U81A | 0.349
C49A G63U C123A | -0.941
C49G A119U | -0.491
A50C A100C | -1.68
A50C C70U U116G G117A | -4.23
C49U G52A G71C | -5.43

Variant | polymerase ribozyme fitness (log ratio)
C49G U54A | 0.0212
A50C G69U U125A | 0.0264
C49U | -0.473
C49G | -0.312
A50G C70G | -4.35
A50G C70U | -0.709
C49U C56A U109A G117U | -5.98
A50C U87G C98U | -0.87
A50G C53A C70G | -2.47
C49U A50G U78C C115A | -1.98
C49U G135U | -1.61
A50C C72U G93U U112G | -2.29
A50C G127A | -0.787
A50C U55G G58C G61C U81A C124A | 0.946
C49A U59A A74U C114U | -2.86
C49G G71U | -1.7
C49G G71A | -0.461
C49U G57C | -0.696
C49U C73A C102U | -2.56
C49G G61A U81C G120C | -3.67
C49G A84U G110C | -5.43
